The text below walks through data of publication PMC12447900.

The target in experiment [1] is recombinant HA-tagged Vimentin (Vimentin-HA) (human) (UniProt P08670). The experiment is described as follows: ELISA; Vimentin-HA coated as ligand at 10 ug/ml in PBS on polystyrene wells; AP-MS candidate as analyte, 1 h at RT in PBS, 0.1 % BSA, 0.02 % Tween-20; detected by anti-SpyTag antibody; approximate Kd by one-site total saturation binding fit. In general terms: An ELISA detects its analyte on a solid surface through an enzyme-linked reagent.

Experiment [2] concerns the target EPHB2, recombinant ectodomain (human) (UniProt P29323). In words: ELISA; AP-MS candidate coated as ligand at 10 ug/ml in PBS on polystyrene wells; Vimentin-HA as analyte, 30 min at RT in PBS, 0.1 % BSA, 0.02 % Tween-20; detected by anti-HA-tag antibody; approximate Kd by one-site total saturation binding fit.
The target in experiment [3] is EPHA2, recombinant ectodomain (human) (UniProt P29317). The experiment is described as above.
The target of experiment [4] is LRRC15, recombinant ectodomain (human) (UniProt Q8TF66). The experiment is described as above.

A word on the Kd: it is the equilibrium constant for the complex coming apart. Regarding “DKK1, recombinant (from UniProt O94907 32-266) (ligand)”, the equilibrium dissociation constant (Kd) in experiment [1] amounted to 232 nM. For “TFRC, recombinant ectodomain (from UniProt P02786 89-760) (receptor)”, the Kd in experiment [1] came to 119 nM. Regarding “recombinant HA-tagged Vimentin (Vimentin-HA) (from UniProt P08670 1-466) (natural protein)”, the equilibrium dissociation constant (Kd) in experiment [2] was found to be 65.3 nM; in experiment [3] it was 20.7 nM; in experiment [4], 53.6 nM.
